# Laboratory results reported in patent US20050232925A1, “Protease activity of thrombin inhibits angiogenesis” (priority 2002, published 2005).
# Tests used:
# HUVEC cells = assay: In vitro angiogenesis (matrigel tube formation) assay; format: cell-based, human; details: in the absence of plasma; rt-PA 1 μg/ml, captopril 0.1 μM
# Protocol: In Vitro Angiogenesis (matrigel tube formation) Assay. Unpolymerized matrigel (7 mg/ml) was placed in the wells (100 μl/well) of a pre-chilled 48-well cell culture plate and then incubated at 37° C. for 30-45 minutes. HUVEC cells were harvested in trypsin and resuspended in EC medium (4×10^4 in 300 μl). Cells were treated with the different agents before plated onto the matrigel-coated plates. […] Microphotographs of the center of each well at low power (40×) were taken with a SPOT camera (Diagnostic Instruments Inc; Sterling Heights, Mich.) and the aid of an imaging capture software (Compix Inc Imaging Systems; Township, Pa.). The microphotographs were quantitatively analyzed (total tube length) with the Simple PCI imaging analysis software (Compix).
# Matrigel tube formation assays. Samples collected from the purification process were exchanged into 1×PBS and reconstituted into 1× concentration (by volume) compared to the input tPA/captopril-treated plasma. They were tested in the matrigel tube formation assays at 10% (v/v) as follows. […] Tube formation was examined (4× magnification) through an inverted phase contrast microscope (Nikon Corporation; Tokyo, Japan) and recorded by a Spot RT camera (Diagnostic Instruments Inc; Sterling Heights, Mich.) using an automated image capture software (Compix Inc Imaging Systems; Township, Pa.).
# [1] = system: 4T1 murine breast cancer cell line; assay: Primary tumor growth of transfected 4T1 cells in BALB/c mice; format: in vivo; details: stable expression in 4T1 cells, mammary pad of BALB/c mice, vs empty vector, five weeks
# Excerpt: Construction of mutant uPA clones and cell transfection. We chose to pursue a genetic approach, in which we stably transfected an aggressive and highly metastatic murine breast cancer cell line (4T1) with the genes for wild type uPA, tPA and a receptor binding mutant of uPA (uPAm). We inserted the cDNA encoding murine tPA into pcDNA 3.1 (+) (Invitrogen), a CMV driven mammalian expression vector, by restriction enzyme digestion of BamHI and NheI. Wild type uPA cDNA was inserted to the pcDNA 3.1 (+) expression vector and the transfected into 4T1 cells in a similar fashion as described for the tPA cDNA. Residues 22, 27, 29 and 30 on the growth factor domain of the murine uPA molecule have been implicated in binding to mouse uPAR.
# The pcDNA 3.1-tPA, pcDNA 3.1-wild type uPA, pcDNA 3.1-uPAm constructs, as well as an empty vector control were introduced into 4T1 cells by transfection using lipofectamine (Gibco-BRL) reagent. We selected 12-14 stable single clones in each group with 500 ug/mL of hygromycin. Each of the clones was evaluated for generation of the gene of interest by northern blot. The clones that had the highest generation of the genes of interest were selected. […]
# Experiments using transfected tumor cells. […] Primary tumor size was measured every other day for a total of five weeks using calipers and calculated using the standard formula (width2×length×0.52). […]
Molecule,inhibition of tube formation (HUVEC cells),inhibition of primary tumor growth [1]
"rt-PA: rt-PA (Genentech), recombinant tissue plasminogen activator; called tPA in Example 2 (protein, UniProt P00750 36-562, looked up, alteplase) Tissue-type plasminogen …: SYQVICRDEKTQMIYQQHQSWLRPVLRSNRVEYCWCNSGRAQCHSVPVKSCSEPRCFNGGTCQQALYFSDFVCQCPEGFAGKCCEIDTRATCYEDQGISYRGTWSTAESGAECTNWNSSALAQKPYSGRRPDAIRLGLGNHNYCRNPDRDSKPWCYVFKAGKYSSEFCSTPACSEGNSDCYFGNGSAYRGTHSLTESGASCLPWNSMILIGKVYTAQNPSAQALGLGKHNYCRNPDGDAKPWCHVLKNRRLTWEYCDVPSCSTCGLRQYSQPQFRIKGGLFADIASHPWQAAIFAKHRRSPGERFLCGGILISSCWILSAAHCFQERFPPHHLTVILGRTYRVVPGEEEQKFEVEKYIVHKEFDDDTYDNDIALLQLKSDSSRCAQESSVVRTVCLPPADLQLPDWTECELSGYGKHEALSPFYSERLKEAHVRLYPSSRCTSQHLLNRTVTDNMLCAGDTRSGGPQANLHDACQGDSGGPLVCLNDGRMTLVGIISWGLGCGQKDVPGVYTKVTNYLDWIRDNMRP",did not cause significant inhibition of tube formation,
"tPA: murine tPA expressed from pcDNA 3.1 in 4T1 cells (not the rt-PA drug) (protein, UniProt P11214 33-559, looked up) Tissue-type plasminogen …: SYRATCRDEPTQTTYQQHQSWLRPMLRSSRVEYCRCNSGLVQCHSVPVRSCSEPRCFNGGTCQQALYFSDFVCQCPDGFVGKRCDIDTRATCFEEQGITYRGTWSTAESGAECINWNSSVLSLKPYNARRPNAIKLGLGNHNYCRNPDRDLKPWCYVFKAGKYTTEFCSTPACPKGKSEDCYVGKGVTYRGTHSLTTSQASCLPWNSIVLMGKSYTAWRTNSQALGLGRHNYCRNPDGDARPWCHVMKDRKLTWEYCDMSPCSTCGLRQYKRPQFRIKGGLYTDITSHPWQAAIFVKNKRSPGERFLCGGVLISSCWVLSAAHCFLERFPPNHLKVVLGRTYRVVPGEEEQTFEIEKYIVHEEFDDDTYDNDIALLQLRSQSKQCAQESSSVGTACLPDPNLQLPDWTECELSGYGKHEASSPFFSDRLKEAHVRLYPSSRCTSQHLFNKTVTNNMLCAGDTRSGGNQDLHDACQGDSGGPLVCMINKQMTLTGIISWGLGCGQKDVPGVYTKVTNYLDWIHDNMKQ",,significantly inhibit tumor cell growth
